Test results published in the supplement of paper PMC10567573.

B1: SNAP91 (parent)
chain: FAQPMMRPPFGAAAVPGTQLSPSP
B2: TNXB (parent)
chain: LLQRELMVPGTRHSAVLRDLRSGT

Variants of: B1
Test: protein stability index of a GFP-peptide fusion (GPS, HEK-293T) (PSI 1-6); higher = more stable
Details: c terminus: a fixed tail appended
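Also: lentivirally expressed fusions sorted by FACS into six bins by GFP to DsRed ratio, PSI derived from sequencing read proportions per bin multiplied by bin number.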

Protein stability index, by site and new letter:
L20: I 3.02; K 3.29; M 2.92; N 3.26; P 3.2; Q 4.04; R 3.51; S 3.33; T 3.56; V 2.85; W 2.73; Y 3.08
S21: A 3.49; C 2.86; D 2.63; E 2.98; F 3.01; G 3.28; H 3.16; I 3.48; K 2.95; L 2.76; M 2.85; N 3.03; P 3.11; Q 3.29; R 3.12; T 3.06; V 3.44; W 2.89; Y 3
P22: A 3.28; C 2.67; D 2.97; E 2.71; F 2.82; G 3.56; H 3.14; I 2.75; K 3; L 3.22; M 2.86; N 3.58; Q 3.57; R 3.32; S 2.96; T 3.3; V 3.08; W 2.65; Y 3.49
S23: A 3.4; C 3.25; D 3.54; E 3.32; F 2.75; G 3.05; H 2.96; I 2.73; K 3.21; L 2.1; M 2.36; N 3.29; Q 3; R 4.14; T 3.27; V 3.19; W 2.03; Y 2.52
P24: A 3.11; C 2.93; D 3.4; E 3.45; F 2.65; G 3.22; H 2.96; I 3.2; K 3.83; L 2.35; M 3.23; N 2.58; Q 3.32; R 2.87; S 3.1; T 3.25; V 2.51; W 2.77; Y 2.86

Variants of: B2
Test: as above
Details: c terminus: a fixed tail appended

Protein stability index of substitutions, site by site:
L1: A 2.85; C 2.38; D 2.71; E 3.08; F 2.41; G 2.89; H 2.98; I 2.47; K 2.87; M 2.73; N 3.54; P 2.53; Q 3.22; R 3.04; S 3.2; T 3.02; V 2.47; W 1.61; Y 2.3
L2: A 3.36; C 2.13; D 3.23; E 3.95; F 2.15; G 3.42; H 3.43; I 2.79; K 3.33; M 2.28; N 3.34; P 3.71; Q 3.54; R 3.92; S 3.4; T 3.29; V 2.48; W 2.12; Y 2.71
Q3: A 2.27; C 1.93; D 3.4; E 3.52; F 2.59; G 2.74; H 2.49; I 1.72; K 2.7; L 1.73; M 2.16; N 2.38; P 2.88; R 2.49; S 2.61; T 2.17; V 1.58; W 2.15; Y 1.72
R4: A 2.19; C 2.49; D 3.44; E 2.65; F 1.72; G 2.43; H 2.73; I 2.3; K 2.46; L 2.76; M 2.37; N 2.86; P 2.77; Q 2.46; S 2.42; T 2.23; V 1.81; W 1.49; Y 2.37
E5: A 1.81; C 1.67; D 2.81; F 1.18; G 2.03; H 1.87; I 2.06; K 2.6; M 1.64; N 2.85; P 2.44; Q 2.6; R 1.98; S 2.29; T 1.77; V 2.11; W 2.84; Y 2.38
L6: A 2.43; C 2.59; D 3.37; E 2.7; F 2.74; G 2.8; H 3.18; I 2.19; K 2.79; M 2.49; N 2.9; P 3.15; Q 2.69; R 2.59; S 3.1; T 3.53; V 2.89; W 2.52; Y 2.63
M7: A 2.97; C 2.54; D 3.17; E 3.61; F 2.02; G 3.15; H 2.35; I 2.44; K 2.52; L 2.39; N 2.57; P 3.11; Q 2.23; R 2.16; S 3.42; T 2.72; V 2.67; W 2.05; Y 3.15
V8: A 2.42; C 2.12; D 2.91; E 2.62; F 2.28; G 2.27; H 2.36; I 1.99; K 2.46; L 2.35; M 2.15; N 2.59; P 2.21; Q 2.22; R 2.12; S 3.11; T 2.36; W 2.34; Y 2.32
P9: A 2.35; C 2; D 2.69; E 2.54; F 1.79; G 2.3; H 2.23; I 1.58; K 2.21; L 2.02; M 2.1; N 2.34; Q 2.1; R 2.21; S 2.2; T 2.03; V 2.38; W 1.68; Y 2.01
G10: A 2.39; C 1.43; D 2.85; E 3.01; F 2.33; H 2.19; I 1.64; K 2; L 1.35; M 1.72; N 2.75; P 2.54; Q 2.41; R 2.9; S 3.01; T 2.58; V 2.02; W 1.72; Y 1.09
T11: A 2.2; C 1.56; D 2.81; E 2.65; F 2.3; G 3.21; H 2.68; I 2.38; K 2.32; L 2.32; M 2.2; N 2.43; P 2.51; Q 2.88; R 2.13; S 2.5; V 2.24; W 1.69; Y 1.94
R12: A 2.01; C 1.94; D 3.01; E 2.39; F 1.98; G 3.09; H 2.4; I 2.47; K 2.28; L 2.07; M 1.85; N 2.76; P 2.91; Q 2.42; S 2.06; T 2.27; V 2.26; W 2.35; Y 2.45
H13: A 2.53; C 2.1; D 3.23; E 2.82; F 1.59; G 2.31; I 1.91; K 2.09; L 2.01; M 2.25; N 2.58; P 3.06; Q 3; R 3.11; S 2.9; T 2.22; V 2.1; W 2.01; Y 2.15
S14: A 2.2
